Molecular target: 3′-end processing factors
Experiment: immunoprecipitation under standard salt conditions

percent of the 3′-end processing factors associated: < 1%
Substance: human tRNA splicing endonuclease

Source: patent US20100136710A1
